In PMC8871863, “Initiator-Directed Transcription: Fission Yeast Nmtl Initiator Directs Preinitiation Complex Formation and Transcriptional Initiation” (Genes, 2022):

Molecular target: T1, TFIIB (fission yeast (S. pombe), UniProt O13749 1-340)
T1 construct: transcription initiation factor TFIIB of fission yeast, recombinant; also called recombinant fission yeast TFIIB
T1 sequence (looked up): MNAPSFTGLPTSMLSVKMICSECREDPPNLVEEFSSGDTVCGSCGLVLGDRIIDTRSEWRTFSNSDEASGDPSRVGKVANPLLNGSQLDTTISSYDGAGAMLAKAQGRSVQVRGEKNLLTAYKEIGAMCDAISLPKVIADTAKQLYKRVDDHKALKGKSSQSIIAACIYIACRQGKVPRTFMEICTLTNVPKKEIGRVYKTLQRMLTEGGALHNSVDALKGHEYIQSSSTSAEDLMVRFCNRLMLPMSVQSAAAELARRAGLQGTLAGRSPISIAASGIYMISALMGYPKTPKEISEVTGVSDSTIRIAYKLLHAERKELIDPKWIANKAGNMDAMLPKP
Assay: native gel or EMSA; purified factors incubated 5 min at 25 °C in 20 mM HEPES pH 7.9, 50 mM KCl, 5 mM MgCl2, 0.1 mM EDTA, 5% glycerol, 0.5% PEG 8000, 2 mM DTT, then 15 min at 30 °C with 32P-labelled nmt1 Inr DNA probe; 5% acrylamide gel at 4 °C; all complexes are formed on the DNA probe
Conditions: both partners purified

- binding result: binds
B1: TBP (natural protein, fission yeast (S. pombe), UniProt P17871 1-231, looked up)
chain: MDFALPTTASQASAFMNNSSLTFPVLPNANNEATNETADSGDAEVSKNEGVSGIVPTLQNIVATVNLDCRLDLKTIALHARNAEYNPKRFAAVIMRIREPKSTALIFASGKMVVLGGKSEDDSKLASRKYARIIQKLGFNAKFTDFKIQNIVGSCDVKFPIRLEGLAYSHGTFSSYEPELFPGLIYRMVKPKVVLLIFVSGKIVLTGAKVREEIYQAFEAIYPVLSEFRKH
notes: also called fission yeast TBP
